One molecule from US20260125478A1 (VIELA BIO, published 2026) can be followed below.

Experiment [1] addresses T1, human FcγRIIA 131H on blood cells of 131H/H donors (human, UniProt P12318 34-317).
T1 sequence (looked up): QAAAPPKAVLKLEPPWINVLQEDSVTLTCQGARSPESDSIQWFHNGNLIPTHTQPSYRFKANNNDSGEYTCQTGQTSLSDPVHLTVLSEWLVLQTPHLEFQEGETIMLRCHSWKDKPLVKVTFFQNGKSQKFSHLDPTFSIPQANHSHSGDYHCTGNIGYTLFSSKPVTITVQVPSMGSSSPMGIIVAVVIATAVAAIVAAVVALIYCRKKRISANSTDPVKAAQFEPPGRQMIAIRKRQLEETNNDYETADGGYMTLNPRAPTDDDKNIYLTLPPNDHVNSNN
Briefly: cell-based or functional assay.

Experiment [2] deals with T2, recombinant human FcγRIIIA-158F allotype (ELISA coat, generated at MedImmune) (human, UniProt P08637 17-208, limits assumed).
T2 construct: also called FcγRIII-158F allotype; CD16A 158F
T2 sequence (P08637 17-208 limits assumed): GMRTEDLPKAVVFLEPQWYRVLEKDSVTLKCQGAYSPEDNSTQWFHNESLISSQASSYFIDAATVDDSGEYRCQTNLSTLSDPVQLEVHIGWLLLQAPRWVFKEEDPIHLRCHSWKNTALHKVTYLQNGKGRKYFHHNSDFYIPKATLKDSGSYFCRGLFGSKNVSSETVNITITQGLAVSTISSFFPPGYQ
Briefly: ELISA on plate-coated FcγRIIIA-158F (2 µg/ml), detection with goat anti-human Fc-HRP. The method, then: (§1) Plates were washed five times with 200 μl of wash buffer (PBS containing 0.1% Tween 20), blocked with blocking buffer containing 5% milk in PBS for 1 hour at room temperature, and washed five additional times with wash buffer. Three-fold serial dilutions of the test antibody or control antibody (R347-Tm) were added to wells in duplicate. Plates were incubated for 2 hours at room temperature, and washed five times with wash buffer. Binding of the antibodies to the FcγRs was detected by adding 50 μl of goat anti-human Fc-HRP (Jackson ImmunoResearch Laboratories, PA) to the wells and incubating for 1 hour at room temperature, washing 10 times, and adding 50 μl TMB substrate (Pierce Biotechnology, MA). The color reaction was stopped with 50 μl 0.2M […] and the absorbance was measured using a spectrophotometer (Molecular Devices, CA) at […].

The target in experiment [3] is T3, human FcγRIIA on primary human cells (neutrophils; sorted CD14+ monocytes), allotype not stated (human, UniProt P12318 34-317).
T3 construct: whole, on cells; also called human FcγRIIA at the neutrophil surface; FcγRIIA-expressing neutrophils
T3 sequence (looked up): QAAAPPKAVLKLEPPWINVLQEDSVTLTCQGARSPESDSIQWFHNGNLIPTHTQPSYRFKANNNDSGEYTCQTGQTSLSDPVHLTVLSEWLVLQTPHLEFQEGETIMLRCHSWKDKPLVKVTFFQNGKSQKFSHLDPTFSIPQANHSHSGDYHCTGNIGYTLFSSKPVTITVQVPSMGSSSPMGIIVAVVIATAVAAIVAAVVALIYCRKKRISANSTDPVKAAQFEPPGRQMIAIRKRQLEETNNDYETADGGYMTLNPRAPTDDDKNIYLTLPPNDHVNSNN
Kind of experiment: flow cytometry, fluorescently labelled antibody on human neutrophils, 30 min at 4 °C, in the presence of 10 mg/mL IVIG as competitor. Here is the method:
Human neutrophils were re-suspended in blocking buffer [phosphate-buffered saline (PBS) supplemented with 10% fetal bovine serum] and transferred to round-bottom 96-well culture plates (0.5×10^6 cells/well). […] After incubation, cells were washed with cold PBS and the mean fluorescence intensity (MFI) of cell-bound antibodies was assessed by flow cytometry using an LSRII (BD; Franklin Lakes, NJ). The EC₅₀ for binding was calculated using a non-linear fit equation in GraphPad Prism 6 software.
(A flow cytometer gives signals particle by particle.)

Experiment [4] has as its target T4, recombinant human FcγRI (ELISA coat, generated at MedImmune) (human, UniProt P12314 16-292, limits assumed).
T4 construct: also called CD64
Kind of experiment: ELISA on plate-coated FcγRI (2 µg/ml), detection with goat anti-human Fc-HRP. The method, then:
as §1

The target in experiment [5] is T5, recombinant FcγRIIB (ELISA coat, generated at MedImmune) (UniProt P31994 43-217, limits assumed).
T5 construct: also called CD32B
T5 sequence (looked up): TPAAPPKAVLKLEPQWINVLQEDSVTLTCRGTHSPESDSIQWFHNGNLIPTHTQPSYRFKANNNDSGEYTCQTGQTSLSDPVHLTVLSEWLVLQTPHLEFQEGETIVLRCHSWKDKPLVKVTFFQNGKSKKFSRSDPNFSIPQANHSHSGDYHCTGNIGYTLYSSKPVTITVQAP
Briefly: ELISA on plate-coated FcγRIIB (2 µg/ml), detection with goat anti-human Fc-HRP. The method, then: as §1

For experiment [6], the target named is T6, recombinant human FcγRIIIA-158V allotype (ELISA coat, generated at MedImmune) (human, UniProt P08637 17-208, limits assumed).
T6 construct: also called FcγRIII-158V allotype; CD16A 158V
T6 sequence (P08637 17-208 F176V limits assumed): as the sequence (P08637 17-208 limits assumed) above, with F160V counted along it
Briefly: ELISA on plate-coated FcγRIIIA-158V (2 µg/ml), detection with goat anti-human Fc-HRP. Here is the method: as §1

T4 sequence (P12314 16-292 limits assumed): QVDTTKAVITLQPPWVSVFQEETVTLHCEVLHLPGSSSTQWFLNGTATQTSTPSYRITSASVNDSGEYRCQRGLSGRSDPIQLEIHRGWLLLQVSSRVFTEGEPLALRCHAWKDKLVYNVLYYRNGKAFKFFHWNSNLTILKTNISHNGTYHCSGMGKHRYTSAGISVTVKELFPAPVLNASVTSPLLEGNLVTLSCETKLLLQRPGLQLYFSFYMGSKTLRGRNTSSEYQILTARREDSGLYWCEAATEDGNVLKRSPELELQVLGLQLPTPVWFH

B1: 32LO0352 (MEDI9600) (antibody, human IgG1, V domains shown)
VH: QVQLVQSGAEVKKPGASVKVSCKASGYTFTNYGMNWVRQAPGQRLEWMGWLNTYTGESWYPDDFKGRVTITRDTSASTAYMELSSLRSEDTAVYYCARGDYGYDDPLDYWGQGTLVTVSS
VL: DIVMTQSPLSLPVTPGEPASISCRSSKSLLHTNQNTYLHWFLQKPGQSPQLLIYRMSVLASGVPDRFSGSGSGTDFTLKISRVEAEDVGVYYCMQHLEYPLTFGQGTKLEIK
notes: Fluorescently labelled in the neutrophil flow cytometry assay and Alexa 647 labelled for confocal microscopy; also called clone 32LO0352; CD32LO0352
For the molecule B1, in experiment [1], the “IC50 of the loss of surface FcγRIIA (M.F.I of IV.3-Alexa 647) on monocytes, whole blood, 2 h at 37 °C” value worked out at 0.0809 nM. The binding result in experiment [2], in experiment [4], in experiment [5] and in experiment [6] was “no binding (tested: about 15000 ng/ml)” in each case. Also, in experiment [3], the EC50 came to 3.35 nM.

Usually EC50 stands for the concentration giving half of the maximal effect.
